# T1: GLH-1(DQAD) (Caenorhabditis elegans, UniProt P34689 1-763, E500Q)
# T1 sequence: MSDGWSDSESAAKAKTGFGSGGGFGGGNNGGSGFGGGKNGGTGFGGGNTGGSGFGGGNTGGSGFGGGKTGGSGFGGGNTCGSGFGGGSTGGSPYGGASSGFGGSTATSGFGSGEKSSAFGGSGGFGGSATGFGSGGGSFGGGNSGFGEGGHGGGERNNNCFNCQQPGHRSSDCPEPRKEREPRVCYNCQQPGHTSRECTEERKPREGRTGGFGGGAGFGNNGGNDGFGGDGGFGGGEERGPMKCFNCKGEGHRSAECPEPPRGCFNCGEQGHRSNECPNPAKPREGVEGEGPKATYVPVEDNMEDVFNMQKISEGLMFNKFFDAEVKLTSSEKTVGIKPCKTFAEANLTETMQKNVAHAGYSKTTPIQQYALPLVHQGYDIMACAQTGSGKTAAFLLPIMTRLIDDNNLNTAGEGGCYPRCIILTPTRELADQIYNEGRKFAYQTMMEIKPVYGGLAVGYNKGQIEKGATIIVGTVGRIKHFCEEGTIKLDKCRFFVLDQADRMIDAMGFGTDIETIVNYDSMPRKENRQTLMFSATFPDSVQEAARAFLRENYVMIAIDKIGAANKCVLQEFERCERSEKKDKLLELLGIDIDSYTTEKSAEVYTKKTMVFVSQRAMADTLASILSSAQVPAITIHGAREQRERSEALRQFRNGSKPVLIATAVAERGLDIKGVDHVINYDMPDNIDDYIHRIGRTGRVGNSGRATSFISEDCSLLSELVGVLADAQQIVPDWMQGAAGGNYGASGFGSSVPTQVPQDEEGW
# Biological target: T1, GLH-1(DQAD)
# Assay: EMSA; 2 mM ATP, 2 mM MgCl2; 10 uM protein, 2 uM RNA; strong ATP-dependent binding; 25 mM HEPES pH 7.4, 150 mM NaCl, 2 mM MgCl2, +/- 2 mM ATP, 30 min at RT; native 8% PAGE in TBE, cold room
# Conditions: protein: recombinant; tags: FLAG; label: 5'-Cy3 (Methods); single strand
binder,measurement,value
GUCAAAGAUAGCCUUGACCUUG (ssRNA) [22-nt ssRNA oligo],binding result,binds
